Patent publication US7919091B2, “Lipolysis stimulated receptor (LSR) specific antibodies” (Serono Genetics Institute S.A., priority 1997, dated 2011)

Experiments:
[1] = Clearance of 125I-leptin in mice; format: in vivo
Experimental: The female control, ob/ob, or db/db mice (6-8 weeks), on an empty stomach, are anaesthetized and receive via the saphenous vein an injection of 80 ng of murine recombinant ^125I-leptin or of ^125I-β2-microglobulin (Sigma, labelled by the Iodobeads method, like leptin). Five minutes later, the animals are infused with a physiological saline solution (15 ml, at 4° C.). The tissues are collected and counted for their radioactivity (Gamma counter). In some cases, an anti-LSR antibody or a control protein are injected 30 minutes after injection of ^125I-leptin. It is important to note that the labelling of leptin with ^125I has no effect on its biological activity.

LSR = molecular target: T1, LSR (Rattus norvegicus, UniProt Q9WU74); experiment: LSR activity of binding, internalization and degradation of lipoproteins in the presence of leptin, rat hepatocytes; format: cell-based; settings: increasing concentrations of leptin, difference with/without 500 μM oleate
T1 construct: from tissue; host or cells: rat liver plasma membranes / solubilized rat liver membrane proteins
T1 sequence (Q9WU74 36-593): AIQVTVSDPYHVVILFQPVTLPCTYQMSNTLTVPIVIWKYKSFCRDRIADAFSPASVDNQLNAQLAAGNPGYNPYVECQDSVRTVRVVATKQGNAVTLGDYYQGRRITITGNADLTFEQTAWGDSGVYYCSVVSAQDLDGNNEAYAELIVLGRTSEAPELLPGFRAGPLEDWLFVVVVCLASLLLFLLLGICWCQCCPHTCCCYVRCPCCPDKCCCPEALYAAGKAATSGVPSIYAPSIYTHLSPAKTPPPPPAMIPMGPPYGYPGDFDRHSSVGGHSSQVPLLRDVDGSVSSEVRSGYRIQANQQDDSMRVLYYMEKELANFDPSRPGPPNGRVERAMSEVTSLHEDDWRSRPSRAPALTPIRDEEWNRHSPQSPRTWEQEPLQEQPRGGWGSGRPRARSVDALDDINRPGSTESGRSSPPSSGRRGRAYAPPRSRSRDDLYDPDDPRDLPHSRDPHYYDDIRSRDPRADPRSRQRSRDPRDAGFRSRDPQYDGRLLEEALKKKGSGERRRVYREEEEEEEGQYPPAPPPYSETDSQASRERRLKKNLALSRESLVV
T1 sequence (Q9WU74 36-525 isoform Q9WU74-3 limits assumed): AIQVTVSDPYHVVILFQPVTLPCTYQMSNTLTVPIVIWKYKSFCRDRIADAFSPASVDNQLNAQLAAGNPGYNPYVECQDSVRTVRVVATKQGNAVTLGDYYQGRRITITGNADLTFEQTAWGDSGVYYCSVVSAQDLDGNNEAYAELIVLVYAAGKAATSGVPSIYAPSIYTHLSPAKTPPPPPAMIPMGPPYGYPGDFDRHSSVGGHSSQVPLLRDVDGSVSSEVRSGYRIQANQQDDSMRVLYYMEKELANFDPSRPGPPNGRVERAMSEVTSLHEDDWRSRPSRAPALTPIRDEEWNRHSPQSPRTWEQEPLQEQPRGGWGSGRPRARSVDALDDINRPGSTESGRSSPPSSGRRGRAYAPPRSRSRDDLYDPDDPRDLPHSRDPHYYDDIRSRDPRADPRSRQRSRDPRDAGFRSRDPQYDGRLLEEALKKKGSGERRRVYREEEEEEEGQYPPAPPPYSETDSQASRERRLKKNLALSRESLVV
Experimental: Rat hepatocytes in primary culture are incubated at 37° C. for 30 min with an increasing concentration of leptin, and then incubated at 37° C. for 4 hours with either 50 μg/ml of ^125I-LDL (specific activity: 209 cpm/ng) or 50 μg/ml of ^125I-VLDL (specific activity: 157 cpm/ng) in the absence or in the presence of 500 μM oleate. The cells are then washed and the quantities of ^125I-lipoproteins bound, incorporated and degraded are measured as described above in Example 1 (Bihain and Yen, 1992). The results shown in FIG. 23 represent the differences obtained between the cells incubated with or without oleate. Each point represents the mean of 3 measurements. The standard deviation for each point is included in the symbol.

[2] = Postprandial lipemic response in mice after a high-fat meal; format: in vivo; settings: 50 μg leptin i.v. with test meal; ob/ob, db/db and control mice
Experimental: Control, ob/ob and db/db mice, starved since the day before, are force-fed with a meal which is very high in fat [60% fat (37% saturated, 27% monounsaturated and 36% polyunsaturated fatty acids), 20% protein and 20% carbohydrate] providing 56 kcal of energy/kg of the weight of the animal. Immediately after the meal (time=0 hour), the mice are injected intravenously with 200 μl of physiological saline solution. At various times, 20 μl of blood are collected via the caudal vein in tubes containing 90 μg of disodium EDTA, and after separating the plasma by centrifugation, the plasma concentration of triglyceridemia is determined with the aid of an enzymatic assay kit. Each point on the curves presented corresponds to the mean with standard deviation obtained for 3 measurements per animal and for 3 different animals.
The procedure is the same as above, except that immediately after the meal (time=0 hour), the mice are injected intravenously with either 200 μl of physiological saline solution, or 200 μl of the same solution containing 50 μg of murine recombinant leptin.
ob/ob mice, starved since the day before, are force-fed with a meal identical to that described above. […] Blood is collected between 2 and 3 hours after the meal and the plasma concentration of triglycerides (TG) is measured. […]

[3] = Long-term treatment with leptin on ob/ob mice: weight and postprandial lipemic response; format: in vivo
Experimental: (§1) The ob/ob obese mice received a daily injection of either leptin, or of an equivalent volume of sterile PBS, for 30 days. The injected doses are 50 μg/animal from day 0 to day 4, 100 μg/animal from day 5 to day 17, and 150 μg/animal from day 18 to day 30. Several parameters indicated below are measured: • the weight (FIG. 29 A): the change in weight is measured for 6 animals, over the duration of the treatment; • the postprandial lipemic response (FIG. 29 B): it is measured according to the protocol detailed in Example 5 on three animals in each group, on day 29; • the apparent number of LSR receptors (FIG. 29 C): it is measured according to the protocol detailed in Example 4 on three animals in each group, on day 30; • the quantity of LSR mRNA ([…]): it is estimated by Northern blotting as indicated in the protocol of Example 2.

LSR receptors = experiment: Long-term treatment with leptin on ob/ob mice: LSR receptor number and LSR mRNA; format: in vivo
Experimental: as §1

B1: leptin: mouse recombinant leptin with hexahistidine end, expressed in E. coli (protein, UniProt P41160 22-167, looked up)
Leptin: VPIQKVQDDTKTLIKTIVTRINDISHTQSVSAKQRVTGLDFIPGLHPILSLSKMDQTLAVYQQVLTSLPSQNVLQIANDLENLRDLLHLLAFSKSCSLPQTSGLQKPESLDGVLEASLYSTEVVALSRLQGSLQDILQQLDVSPEC
modifications: hexahistidine tag
notes: mouse recombinant leptin with hexahistidine end, expressed in E. coli
renal capture of leptin ([1]; between control, ob/ob and db/db lines, 5 minutes after injection): no difference
quantity of leptin selectively captured by the liver ([1]; obese (ob/ob, db/db) mice compared with control mice, 5 minutes after injection): reduced
speed of clearance ([1]; radiolabelled recombinant leptin, obese and control mice): rapid speed of clearance
injected dose found in liver and kidney ([1]; radiolabelled recombinant leptin, obese and control mice, after 10 minutes): 50%
binding, internalization and degradation of VLDLs and LDLs (LSR): increases
postprandial lipemic response (plasma triglycerides) [2]: reduce
weight ([3]; daily leptin injection over 30 days): very significant loss of weight
postprandial lipemic response ([3]; day 29 of leptin treatment): clear reduction
apparent number of LSR receptors at the surface of the cells (LSR receptors; day 30 of leptin treatment): increase
quantity of mRNA encoding the subunits of the LSR receptor (LSR receptors; leptin 30 days, Northern blotting of liver RNA): increase
